Experimental data published in US20200148777A1 (GAMAMABS PHARMA, published 2020).

T1: human Fcγ RII/CD32a (human, UniProt P12318 36-218)
T1 construct: Captured through anti-His antibody, so a His tag is implied but not described; also called hFcγRIIa
T1 sequence (looked up): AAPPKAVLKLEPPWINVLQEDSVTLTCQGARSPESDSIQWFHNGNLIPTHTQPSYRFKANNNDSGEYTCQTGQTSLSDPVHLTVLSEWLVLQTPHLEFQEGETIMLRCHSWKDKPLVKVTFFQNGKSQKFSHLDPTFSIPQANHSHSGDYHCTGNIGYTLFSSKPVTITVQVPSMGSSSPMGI

T2: MISRII (AMHRII), immobilised on CM5 sensor chip (UniProt Q16671 18-144, limits assumed)
T2 construct: also called MSRII; immobilized receptor
T2 sequence (looked up): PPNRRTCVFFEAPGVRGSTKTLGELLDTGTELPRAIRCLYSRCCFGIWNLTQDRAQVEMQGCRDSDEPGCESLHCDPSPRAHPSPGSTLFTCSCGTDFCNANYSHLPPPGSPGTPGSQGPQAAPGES

T3: human Fcγ RIIbc/CD32bc (human, UniProt P31994 46-217)
T3 construct: treated here as one molecule; also called hFcγRIIb
T3 sequence (looked up): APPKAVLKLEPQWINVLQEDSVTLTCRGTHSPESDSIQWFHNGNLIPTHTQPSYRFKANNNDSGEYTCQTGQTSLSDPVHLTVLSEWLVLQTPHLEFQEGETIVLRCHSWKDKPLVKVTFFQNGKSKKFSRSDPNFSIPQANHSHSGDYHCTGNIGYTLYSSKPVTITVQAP

B1: 3C23K humanised anti-AMHRII monoclonal antibody produced in YB2/0 cells (hypofucosylated, EMABling version) (antibody, human IgG1, kappa)
heavy: not shown
light: DIQMTQSPSTLSASVGDRVTITCRASSSVRYIAWYQQKPGKAPKLLTYPTSSLKSGVPSRFSGSGSGTEFTLTISSLQPDDFATYYCLQWSSYPWTFGGGTKVEIKRTVAAPSVFIFPPSDEQLKSGTASVVCLLNNFYPREAKVQWKVDNALQSGNSQESVTEQDSKDSTYSLSSTLTLSKADYEKHKVYACEVTHQGLSSPVTKSFNRGEC
modifications: N-glycan at ASN295 of the heavy chain, hypofucosylated (33.0% fucosylated isoforms for 3C23K from YB2/0)
notes: also called GM102; R18H2
B2: 3C23K antibody expressed in HEK293 cells (antibody, human IgG1, kappa)
heavy: not shown
light: DIQMTQSPSTLSASVGDRVTITCRASSSVRYIAWYQQKPGKAPKLLTYPTSSLKSGVPSRFSGSGSGTEFTLTISSLQPDDFATYYCLQWSSYPWTFGGGTKVEIKRTVAAPSVFIFPPSDEQLKSGTASVVCLLNNFYPREAKVQWKVDNALQSGNSQESVTEQDSKDSTYSLSSTLTLSKADYEKHKVYACEVTHQGLSSPVTKSFNRGEC
notes: It differs from m1 only in glycosylation; also called 3C23K-HEK293
B3: murine anti-MISRII monoclonal antibody 12G4 (antibody, V domains shown)
VH: QVQLQQSGPELVKPGASVRMSCKASGYTFTSYHIHWVKQRPGQGLEWIGWIYPGDDSTKYNEKFKGKTTLTADKSSSTAYMLLSSLTSEDSAIYFCTRGDRFAYWGQGTLVTVSA
VL: QIVLTQSPAIMSASLGEGITLTCSASSSVRYIHWYQQKSGTSPKLLIYSTSNLASGVPSRFSGSGSGTFHSLTISSVEAEDAADYYCLQWSSYPWTFGGGTKLEIK

Columns and labels:
human Fcγ RIIIb/hCD16b [1] = biological target: T4, human Fcγ RIIIb/hCD16b (human, UniProt O75015 17-200); test: SPR, single-cycle titration, FcγR captured on anti-His; 3C23K from YB2/0, low fucose (33.0% fucosylated)
T4 construct: Captured through anti-His antibody, so a His tag is implied but not described; also called hFcγRIIIb
T4 sequence (O75015 17-200 limits assumed): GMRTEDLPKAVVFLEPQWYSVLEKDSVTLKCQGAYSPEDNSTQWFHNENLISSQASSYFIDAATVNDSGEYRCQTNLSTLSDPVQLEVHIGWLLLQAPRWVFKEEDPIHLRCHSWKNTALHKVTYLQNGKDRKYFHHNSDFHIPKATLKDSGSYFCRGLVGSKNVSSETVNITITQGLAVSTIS
Experimental: (§1) SPR analyses were performed on a Bia3000 or T200 apparatus at 25° C. in HBS-EP (GE Healthcare). For affinity measurements, MISRII was covalently immobilized (1000 RU) on CM5 sensor chip using EDC/NHS activation according to the manufacturer's instructions (GE Healthcare). Different concentrations (0.5-128 nM) of 12G4 or 3C23K were injected on immobilized receptor during 180 seconds. After 400 seconds of dissociation in running buffer, the sensor chip was regenerated using Gly-HCl pH 1.7. The KD values, taking into account affinity and avidity, were calculated using a Langmuir 1:1 fitting model (BiaEvaluation3.2, GE Healthcare). Antibody-FcγR measurements were performed by single-cycle titration at 100 μl/min on FcγR (Sigma) captured on anti-His (R&D Systems) covalently immobilized at 4000-5000 RU level. The gamma receptor was injected at 20 nM during 60 seconds and five increasing antibody concentrations were injected (injection time=60 seconds). […] Kinetic parameters were evaluated from the sensorgrams using a heterogeneous Ligand or steady-state fitting models on the T200 evaluation software 3.0 (GE healthcare). […]
(§2) The percentages of fucosylated, galactosylated and bisecting GlcNAc isoforms were 33.0%, 57.2% and 1.8% for 3C23K and 94.6%, 54.4% and 2.0%, for 3C23K-CHO, respectively. The effect of these glycosylation differences on the binding to FcγRs was analyzed by SPR.

human Fcγ RIIIa/CD16a [2] = biological target: T5, human Fcγ RIIIa/CD16a (human, UniProt P08637 17-208); test: SPR, single-cycle titration, FcγR captured on anti-His; 3C23K from YB2/0, low fucose (33.0% fucosylated); lower end of the range 1-12 nM
T5 construct: Captured through anti-His antibody, so a His tag is implied but not described; also called hFcγRIIIa
T5 sequence (P08637 17-208 limits assumed): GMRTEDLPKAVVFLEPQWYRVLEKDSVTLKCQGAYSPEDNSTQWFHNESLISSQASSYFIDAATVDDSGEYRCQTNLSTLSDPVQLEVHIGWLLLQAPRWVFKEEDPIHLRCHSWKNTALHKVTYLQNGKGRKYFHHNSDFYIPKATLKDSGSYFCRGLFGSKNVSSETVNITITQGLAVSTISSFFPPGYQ
Experimental: as §1, §2

human Fcγ RI/CD64 [3] = biological target: T6, human Fcγ RI/CD64 (human, UniProt P12314 16-288); test: SPR T200, single-cycle titration, receptor captured on anti-His; two state reaction model
T6 construct: Captured through anti-His antibody, so a His tag is implied but not described; also called hFcγRI
T6 sequence (P12314 16-288 limits assumed): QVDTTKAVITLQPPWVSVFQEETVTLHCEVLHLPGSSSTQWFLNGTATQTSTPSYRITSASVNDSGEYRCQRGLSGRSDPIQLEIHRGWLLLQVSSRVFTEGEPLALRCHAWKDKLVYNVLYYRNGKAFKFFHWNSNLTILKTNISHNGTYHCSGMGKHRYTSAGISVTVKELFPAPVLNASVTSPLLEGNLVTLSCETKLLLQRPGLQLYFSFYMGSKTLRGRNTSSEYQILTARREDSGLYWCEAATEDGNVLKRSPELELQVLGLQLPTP
Experimental: (§3) Anti-histidine antibodies (R&D Systems) were immobilized on a T200 apparatus at 25° C. in HBS-EP at 10 μl/min flow rate on a CM5 sensor chip using EDC/NHS activation, according to the manufacturer's instructions (GE Healthcare). They were covalently immobilized at the 6900RU level on the flowcell Fc2 and a control reference surface (flowcell Fc1) was prepared using the same chemical treatment but without anti-His antibodies.
(§4) All kinetic measurements in Fc1 and Fc2 were performed by single-cycle titration on a T200 apparatus at 25° C. in HBS-EP at 100 μl/min. Each human gamma receptor (R&D Systems) was captured on immobilized anti-His antibodies at 20 nM during 60 s. Five increasing concentrations of antibody were injected (injection time=120 s). After a dissociation step of 600 s in running buffer, sensor surfaces were regenerated using 5 μl of glycine-HCl pH1.7. All the sensorgrams were corrected by subtracting the low signal from the control reference surface and buffer blank injections. Kinetic parameters were evaluated from the sensorgrams using a heterogeneous ligand or two states models from the T200 evaluation software.
(§5) The results of the measure of the affinity constants (Kd) of the hypo-fucosylated anti-AMHRII 3C23K antibody for the human Fc receptors are depicted in Table 4 below.

human Fcγ RIIIa/CD16a [4] = biological target: T5, human Fcγ RIIIa/CD16a; test: SPR (Biacore); description's upper bound for hypofucosylated 3C23K (YB2/0)
human Fcγ RIIIa/CD16a [5] = biological target: T5, human Fcγ RIIIa/CD16a; test: SPR, single-cycle titration, FcγR captured on anti-His; 3C23K from YB2/0, low fucose (33.0% fucosylated); upper end of the range 1-12 nM
Experimental: as §1, §2

human Fcγ RIIIb/hCD16b [6] = biological target: T4, human Fcγ RIIIb/hCD16b; test: SPR T200, single-cycle titration, receptor captured on anti-His; heterogeneous ligand model (footnote *)
Experimental: as §3, §4, §5

human Fcγ RII/CD32a = biological target: T1, human Fcγ RII/CD32a; test: as above
Experimental: as §3, §4, §5

[7] = biological target: T2, MISRII (AMHRII), immobilised on CM5 …; test: SPR, MISRII immobilised on CM5 chip, IgG injected, Langmuir 1:1 fit (affinity and avidity)
Experimental: as §1
To better define the binding characteristics, clone 3C23K was reformatted as an IgG1 antibody, produced in YB2/0 cells and analyzed by surface plasmon resonance (SPR). […]

human Fcγ RIIIa/CD16a [8] = biological target: T5, human Fcγ RIIIa/CD16a; test: SPR, single-cycle titration, FcγR captured on anti-His; 3C23K-HEK293, expressed in HEK293 (comparator, not fucose-reduced); upper end of the range 31-164 nM
Experimental: as §1, §2

human Fcγ RIIIa/CD16a [9] = biological target: T5, human Fcγ RIIIa/CD16a; test: SPR, single-cycle titration, FcγR captured on anti-His; 3C23K-HEK293, expressed in HEK293 (comparator, not fucose-reduced); lower end of the range 31-164 nM
Experimental: as §1, §2

human Fcγ RIIIb/hCD16b [10] = biological target: T4, human Fcγ RIIIb/hCD16b; test: SPR, single-cycle titration, FcγR captured on anti-His; 3C23K-HEK293, expressed in HEK293 (comparator, not fucose-reduced)
Experimental: as §1, §2

human Fcγ RIIbc/CD32bc = biological target: T3, human Fcγ RIIbc/CD32bc; test: SPR, FcγR captured on anti-His
Experimental: as §1, §2

human Fcγ RI/CD64 [11] = biological target: T6, human Fcγ RI/CD64; test: SPR, FcγR captured on anti-His
Experimental: as §1, §2

Binder	Kd (human Fcγ RIIIb/hCD16b [1]) [nM]	Kd (human Fcγ RIIIa/CD16a [2]) [nM]	Kd (human Fcγ RI/CD64 [3]) [nM]	Kd (human Fcγ RIIIa/CD16a [4]) [nM]	Kd (human Fcγ RIIIa/CD16a [5]) [nM]	Kd (human Fcγ RIIIb/hCD16b [6]) [nM]	Kd (human Fcγ RII/CD32a) [nM]	Kd [7] [nM]	Kd (human Fcγ RIIIa/CD16a [8]) [nM]	Kd (human Fcγ RIIIa/CD16a [9]) [nM]	Kd (human Fcγ RIIIb/hCD16b [10]) [nM]	binding result (human Fcγ RIIbc/CD32bc)	binding result (human Fcγ RI/CD64 [11])
B1	86	≥ 1	0.2 to 3.3	< 50	≤ 12	49	120	0.055					
B2									≤ 164	≥ 31	378	binds	binds
B3								0.79					
